Results taken from the supplement of paper PMC10567573.

Assay: protein stability index of a GFP-peptide fusion (GPS, HEK-293T) (PSI 1-6); higher = more stable
Settings: c terminus: a fixed tail appended
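Also: lentivirally expressed fusions sorted by FACS into six bins by GFP to DsRed ratio, PSI derived from sequencing read proportions per bin multiplied by bin number.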

B1: ANKRD17 WT (peptide)
chain: EMVRFLLEAGADQEHKTDEMHTAL
- protein stability index (parent: IOH26350_70): 2.65

B2: NETO1 WT (peptide)
chain: KTSLLDQLTNTSGTVIGVTSCIVI
- protein stability index (parent: IOH26431_56): 3.09

B3: KCTD10 WT (peptide)
chain: SSKEEQKLIATSNKPAVKLLYNRS
- protein stability index (parent: IOH25947_25): 4.05

B4: FCHO1 WT (peptide)
chain: FSDPSQSDPETKDFWLNMAALTEA
- protein stability index (parent: IOH26137_117): 2.84

B5: EHMT1 WT (peptide)
chain: SARQGELQKVLLMLVDGIDPNFKM
- protein stability index (parent: IOH26527_125): 1.73

B6: TAF7L WT (peptide)
chain: PDVENEVKRLLRSDAEAVSTRWEV
- protein stability index (parent: IOH26414_44): 3.49

B7: EHMT1 WT (peptide)
chain: EEINKNISDFGRQQLLPPFPSLHQ
- protein stability index (parent: IOH26527_40): 2.94

B8: RHOBTB3 WT (peptide)
chain: QLQSMPSRELASMNLDIVDLLKKA
- protein stability index (parent: IOH25836_87): 3.28

B9: NETO1 WT (peptide)
chain: GFSPIIGRFCGQQNPPVIKSSGRF
- protein stability index (parent: IOH26431_19): 2.17

B10: ADD1 WT (peptide)
chain: GEGTGSPPKWQIGEQEFEALMRML
- protein stability index (parent: IOH25868_61): 3.11

B11: ANKRD17 WT (peptide)
chain: EVLRRLTSSVSCALDEAAAALTRM
- protein stability index (parent: IOH26350_34): 1.95

B12: TRIM15 WT (peptide)
chain: LSQMGAQSSGKILLCPLCQEEEQA
- protein stability index (parent: IOH26053_8): 3.51

B13: EHMT1 WT (peptide)
chain: FHKDCASRVNNASYCPHCGEESSK
- protein stability index (parent: IOH26527_103): 3.47

B14: TRIM15 WT (peptide)
chain: LLARLRELEQQIWKERDEYITKVS
- protein stability index (parent: IOH26053_32): 1.67

B15: PSD2 WT (peptide)
chain: LTHFSRRYCQCNPDDSTSEDGIHT
- protein stability index (parent: IOH26041_65): 3.23

B16: FANCE WT (peptide)
chain: AQVLMLGQILELPWKEETFLVLQS
- protein stability index (parent: IOH26415_73): 2.44

B17: KLHDC10 WT (peptide)
chain: CPIIRIPNRFLRGHRPPPARSGHR
- protein stability index (parent: IOH26494_13): 1.87

B18: PSD2 WT (peptide)
chain: PLMGETQERERVLTHFSRRYCQCN
- protein stability index (parent: IOH26041_63): 3.06

B19: FCHO1 WT (peptide)
chain: HLELTRKLQDLIKDVLRYGEEQLK
- protein stability index (parent: IOH26137_15): 2.46

B20: KLHDC10 WT (peptide)
chain: FGGTGIPFGESNGNGVHVCNVKYK
- protein stability index (parent: IOH26494_29): 2.05

B21: FCHO1 WT (peptide)
chain: DKLALCHLELTRKLQDLIKDVLRY
- protein stability index (parent: IOH26137_14): 2.73

B22: KLHDC10 WT (peptide)
chain: PSLLELAWEKLLAAFPNLANLSRT
- protein stability index (parent: IOH26494_68): 2.3

B23: TRIM15 WT (peptide)
chain: QSSGKILLCPLCQEEEQAETPMAP
- protein stability index (parent: IOH26053_9): 3.3

B24: PRAME WT (peptide)
chain: KKLKIFAMPMQDIKMILKMVQLDS
- protein stability index (parent: IOH26126_36): 2.56

B25: ADD1 WT (peptide)
chain: LRHSFQKQQREKTRWLNSGRGDEA
- protein stability index (parent: IOH25868_73): 3.66

B26: FCHO1 WT (peptide)
chain: FTSSPSPFSSSSPENVEDSGLDSP
- protein stability index (parent: IOH26137_77): 1.88

B27: ADD1 WT (peptide)
chain: FASDGDSGTCSPLRHSFQKQQREK
- protein stability index (parent: IOH25868_71): 3.71
